Data as given in publication PMC3516615 (Structure (London, England : 1993), 2012).
Positions count from the first letter of the chain named. Numbers in names are those of the source. Like-named read-outs stand apart in the source and are kept apart here.

Tests used:
[1] = biological target: EphA2, full length, R950T, expressed in U87 cells (human, UniProt P29317 24-976, R950T); experiment: co-IP
[2] = biological target: EphB2 SAM domain penta-mutant L954K/T959R/A961P/K966R/N969Y (human); experiment: ITC
[3] = biological target: T1, EphA2 SAM domain R950T (human, UniProt P29317 897-976, R950T); experiment: ITC
T1 sequence (looked up): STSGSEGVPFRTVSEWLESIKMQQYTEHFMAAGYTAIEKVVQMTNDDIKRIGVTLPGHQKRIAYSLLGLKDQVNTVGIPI

[4] = biological target: T2, EphA2 SAM domain (wild type) (human, UniProt P29317 897-976); experiment: NMR titration
T2 sequence (looked up): T1 sequence (looked up) with T54R

[5] = biological target: T3, EphA2 SAM domain K945L/Y960N (human, UniProt P29317 897-976, K945L | Y960N); experiment: ITC
T3 sequence (looked up): T1 sequence (looked up) with K49L, T54R, Y64N

[6] = biological target: T4, EphA2 SAM domain Y960N (human, UniProt P29317 897-976, Y960N); experiment: ITC
T4 sequence (looked up): T1 sequence (looked up) with T54R, Y64N

[7] = biological target: T5, EphA1 SAM domain (human, UniProt P21709 906-976); experiment: ITC
T5 sequence (looked up): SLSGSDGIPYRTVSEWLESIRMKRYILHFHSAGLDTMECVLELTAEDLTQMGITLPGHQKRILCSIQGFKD

[8] = biological target: T6, EphA2 SAM domain R950E (human, UniProt P29317 897-976, R950E); experiment: ITC
T6 sequence (looked up): T1 sequence (looked up) with T54E

[9] = biological target: T7, EphA2 SAM domain K945L (human, UniProt P29317 897-976, K945L); experiment: ITC
T7 sequence (looked up): T1 sequence (looked up) with K49L, T54R

[10] = biological target: T8, EphA2 SAM domain K917D (human, UniProt P29317 897-976, K917D); experiment: ITC
T8 sequence (looked up): T1 sequence (looked up) with K21D, T54R

[11] = biological target: T2, EphA2 SAM domain (wild type); experiment: ITC
[12] = biological target: T9, EphA2 SAM domain K956E (human, UniProt P29317 897-976, K956E); experiment: ITC
T9 sequence (looked up): T1 sequence (looked up) with T54R, K60E

[13] = biological target: T10, EphA2 SAM domain K956D (human, UniProt P29317 897-976, K956D); experiment: ITC
T10 sequence (looked up): T1 sequence (looked up) with T54R, K60D

[14] = biological target: T11, EphA2 SAM domain K917E (human, UniProt P29317 897-976, K917E); experiment: ITC
T11 sequence (looked up): T1 sequence (looked up) with K21E, T54R

[15] = biological target: T2, EphA2 SAM domain (wild type); experiment: ITC; remark: listed apart in the source
[16] = biological target: T2, EphA2 SAM domain (wild type); experiment: ITC; remark: listed apart in the source

B1: SHIP2 (SH2-linked inositol phosphatase 2), endogenous in U87 cells (enzyme, human (endogenous in U87), UniProt O15357 1-1258, looked up)
chain: MASACGAPGPGGALGSQAPSWYHRDLSRAAAEELLARAGRDGSFLVRDSESVAGAFALCVLYQKHVHTYRILPDGEDFLAVQTSQGVPVRRFQTLGELIGLYAQPNQGLVCALLLPVEGEREPDPPDDRDASDGEDEKPPLPPRSGSTSISAPTGPSSPLPAPETPTAPAAESAPNGLSTVSHDYLKGSYGLDLEAVRGGASHLPHLTRTLATSCRRLHSEVDKVLSGLEILSKVFDQQSSPMVTRLLQQQNLPQTGEQELESLVLKLSVLKDFLSGIQKKALKALQDMSSTAPPAPQPSTRKAKTIPVQAFEVKLDVTLGDLTKIGKSQKFTLSVDVEGGRLVLLRRQRDSQEDWTTFTHDRIRQLIKSQRVQNKLGVVFEKEKDRTQRKDFIFVSARKREAFCQLLQLMKNKHSKQDEPDMISVFIGTWNMGSVPPPKNVTSWFTSKGLGKTLDEVTVTIPHDIYVFGTQENSVGDREWLDLLRGGLKELTDLDYRPIAMQSLWNIKVAVLVKPEHENRISHVSTSSVKTGIANTLGNKGAVGVSFMFNGTSFGFVNCHLTSGNEKTARRNQNYLDILRLLSLGDRQLNAFDISLRFTHLFWFGDLNYRLDMDIQEILNYISRKEFEPLLRVDQLNLEREKHKVFLRFSEEEISFPPTYRYERGSRDTYAWHKQKPTGVRTNVPSWCDRILWKSYPETHIICNSYGCTDDIVTSDHSPVFGTFEVGVTSQFISKKGLSKTSDQAYIEFESIEAIVKTASRTKFFIEFYSTCLEEYKKSFENDAQSSDNINFLKVQWSSRQLPTLKPILADIEYLQDQHLLLTVKSMDGYESYGECVVALKSMIGSTAQQFLTFLSHRGEETGNIRGSMKVRVPTERLGTRERLYEWISIDKDEAGAKSKAPSVSRGSQEPRSGSRKPAFTEASCPLSRLFEEPEKPPPTGRPPAPPRAAPREEPLTPRLKPEGAPEPEGVAAPPPKNSFNNPAYYVLEGVPHQLLPPEPPSPARAPVPSATKNKVAITVPAPQLGHHRHPRVGEGSSSDEESGGTLPPPDFPPPPLPDSAIFLPPSLDPLPGPVVRGRGGAEARGPPPPKAHPRPPLPPGPSPASTFLGEVASGDDRSCSVLQMAKTLSEVDYAPAGPARSALLPGPLELQPPRGLPSDYGRPLSFPPPRIRESIQEDLAEEAPCLQGGRASGLGEAGMSAWLRAIGLERYEEGLVHNGWDDLEFLSDITEEDLEEAGVQDPAHKRLLLDTLQLSK
B1 was tested, and the “fold binding against wild type EphA2” value [1] was ~2 fold.

B2: SHIP2 SAM domain (wild type) (domain or fragment, human, UniProt O15357 1192-1258, looked up)
chain: RASGLGEAGMSAWLRAIGLERYEEGLVHNGWDDLEFLSDITEEDLEEAGVQDPAHKRLLLDTLQLSK
For B2, the Kd [2] was 7.6 µM, the “fold enhancement of the interaction against the wild-type pair” value [3] was ~4 fold and the Kd [4] was ~10 µM. For the same binder, the Kd [5] was 1600 ± 600 nM, the dH [5] was -2 kcal/mol and the Kd [6] was 3.1 ± 0.4 µM. The dH [6] was -3 kcal/mol, the Kd [7] was 3.8 ± 0.4 µM and the dH [7] was -3.6 kcal/mol. For the same binder, the Kd [8] was 1700 ± 300 nM, the dH [8] was -2.4 kcal/mol and the Kd [9] was 1300 ± 200 nM. It also gave a dH [9] of -2.1 kcal/mol, a Kd [10] of 9.1 ± 5.7 µM and a dH [10] of -0.85 kcal/mol. For the same binder, the Kd [11] was 5.2 ± 1.2 µM, the dH [11] was -2.5 kcal/mol and the Kd [12] was > 50 µM. For the same binder, the Kd [13] was > 50 µM.

B3: SHIP2 SAM domain E1226K (domain or fragment, human, UniProt O15357 1192-1258, looked up)
chain: B2 chain with E35K
Binder B3 has a Kd [14] of 15.4 ± 1.9 µM and a dH [14] of -2 kcal/mol.

B4: SHIP2 SAM domain D1235K (domain or fragment, human, UniProt O15357 1192-1258, looked up)
chain: B2 chain with D44K
Binder B4 has a Kd [13] of 7 ± 3 µM and a dH [13] of -0.8 kcal/mol.

B5: SHIP2 SAM domain D1224K (domain or fragment, human, UniProt O15357 1192-1258, looked up)
chain: B2 chain with D33K
B5 was tested, and the Kd [10] was 10 ± 2 µM and the dH [10] was -2.5 kcal/mol.

B6: SHIP2 SAM domain H1219E (domain or fragment, human, UniProt O15357 1192-1258, looked up)
chain: B2 chain with H28E
With B6 the Kd [15] was 4 ± 0.4 µM, the dH [15] was -5.5 kcal/mol and the Kd [8] was 11200 ± 2700 nM. It also gave a dH [8] of -7.5 kcal/mol.

B7: SHIP2 SAM domain H1219S (domain or fragment, human, UniProt O15357 1192-1258, looked up)
chain: B2 chain with H28S
With B7 the “fold enhancement of the interaction against the wild-type pair” value [16] was ~4 fold.

B8: SHIP2 SAM domain H1219R (domain or fragment, human, UniProt O15357 1192-1258, looked up)
chain: B2 chain with H28R
B8 gave a Kd [8] of 1300 ± 100 nM and a dH [8] of -5 kcal/mol.
